# Source: patent publication US20250154231A1
# Where two headings read alike, the source gives them in different places.
# Assays:
# Assay in all cases: cell-based or functional assay
# [1] = target: SARS-CoV-2 spike (S) protein, Omicron BJ.1 (SARS-CoV-2) (UniProt P0DTC2)
# [2] = target: SARS-CoV-2 spike (S) protein, Omicron BA.2 (SARS-CoV-2) (UniProt P0DTC2)
# [3] = target: SARS-CoV-2 spike (S) protein, Victoria strain (SARS-CoV-2) (UniProt P0DTC2)
# [4] = target: SARS-CoV-2 spike (S) protein, Omicron BA.2.75.2 (SARS-CoV-2) (UniProt P0DTC2)
# [5] = target: SARS-CoV-2 spike (S) protein, Omicron BA.4/5 (SARS-CoV-2) (UniProt P0DTC2)
# [6] = target: SARS-CoV-2 spike (S) protein, Omicron BA.4.6 (SARS-CoV-2) (UniProt P0DTC2)
# [7] = target: SARS-CoV-2 spike (S) protein, Omicron BA.2.75 (SARS-CoV-2) (UniProt P0DTC2)
# [8] = target: SARS-CoV-2 spike (S) protein, Omicron BA.2.3.20 (SARS-CoV-2) (UniProt P0DTC2)
# [9] = target: SARS-CoV-2 spike (S) protein, Omicron BA.2 (SARS-CoV-2) (UniProt P0DTC2); remark: listed apart in the source
# [10] = target: SARS-CoV-2 spike (S) protein, Omicron BA.2.75 (SARS-CoV-2) (UniProt P0DTC2); remark: listed apart in the source
# [11] = target: SARS-CoV-2 Omicron BA.2 spike (S) protein (SARS-CoV-2) (UniProt P0DTC2)
# [12] = target: SARS-CoV-2 Omicron BA.1 spike (S) protein of the pseudovirus (SARS-CoV-2) (UniProt P0DTC2)
# [13] = target: SARS-CoV-2 Gamma spike (S) protein (SARS-CoV-2) (UniProt P0DTC2)
# [14] = target: SARS-CoV-2 spike (S) protein, Omicron BA.1 (SARS-CoV-2) (UniProt P0DTC2)
# [15] = target: SARS-CoV-2 Omicron BA.1 spike (S) protein of the live isolate (SARS-CoV-2) (UniProt P0DTC2)
# [16] = target: SARS-CoV-2 Alpha spike (S) protein (SARS-CoV-2) (UniProt P0DTC2)
# [17] = target: SARS-CoV-2 Omicron BA.1.1 spike (S) protein, pseudovirus construct (SARS-CoV-2) (UniProt P0DTC2)
# [18] = target: SARS-CoV-2 Omicron BA.1 spike (S) protein, pseudovirus construct (SARS-CoV-2) (UniProt P0DTC2)
# [19] = target: SARS-CoV-2 spike (S) protein, Omicron BA.2 (SARS-CoV-2) (UniProt P0DTC2); remark: listed apart in the source
# [20] = target: SARS-CoV-2 spike (S) protein, Omicron BA.1.1 (SARS-CoV-2) (UniProt P0DTC2)
# [21] = target: SARS-CoV-2 spike (S) protein, Victoria strain (SARS-CoV-2) (UniProt P0DTC2); remark: listed apart in the source
# [22] = target: SARS-CoV-2 Omicron BA.3 spike (S) protein (SARS-CoV-2) (UniProt P0DTC2)
# [23] = target: SARS-CoV-2 Beta (B.1.351) spike (S) protein (SARS-CoV-2) (UniProt P0DTC2)
# [24] = target: SARS-CoV-2 Omicron BA.4/5 spike (S) protein (SARS-CoV-2) (UniProt P0DTC2)
# [25] = target: SARS-CoV-2 spike (S) protein, Omicron BA.4/5 (SARS-CoV-2) (UniProt P0DTC2); remark: listed apart in the source
# [26] = target: SARS-CoV-2 Omicron (BA.1) spike (S) protein, live virus isolate (SARS-CoV-2) (UniProt P0DTC2)
# [27] = target: SARS-CoV-2 Omicron BA.2 spike (S) protein, pseudovirus construct (SARS-CoV-2) (UniProt P0DTC2)
# [28] = target: SARS-CoV-2 Omicron BA.3 spike (S) protein, pseudovirus construct (SARS-CoV-2) (UniProt P0DTC2)
# [29] = target: SARS-CoV-2 Alpha (B.1.1.7) spike (S) protein (SARS-CoV-2) (UniProt P0DTC2)
# [30] = target: SARS-CoV-2 Victoria spike (S) protein (SARS-CoV-2) (UniProt P0DTC2)
# [31] = target: SARS-CoV-2 spike (S) protein, Omicron BA.3 (SARS-CoV-2) (UniProt P0DTC2)
# [32] = target: SARS-CoV-2 Beta spike (S) protein (SARS-CoV-2) (UniProt P0DTC2)
# [33] = target: SARS-CoV-2 Gamma (P.1) spike (S) protein (SARS-CoV-2) (UniProt P0DTC2)
# [34] = target: SARS-CoV-2 Delta spike (S) protein (SARS-CoV-2) (UniProt P0DTC2)
# [35] = target: SARS-CoV-2 Omicron BA.1.1 spike (S) protein (SARS-CoV-2) (UniProt P0DTC2)
# [36] = target: SARS-CoV-2 spike (S) protein, Omicron BA.2.75 (SARS-CoV-2) (UniProt P0DTC2); remark: listed apart in the source
# Sequence of Omi-12 (antibody) (VH): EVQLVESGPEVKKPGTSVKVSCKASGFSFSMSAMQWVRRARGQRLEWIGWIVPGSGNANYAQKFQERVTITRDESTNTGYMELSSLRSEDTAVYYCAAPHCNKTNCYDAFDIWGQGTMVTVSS
# Sequence of Omi-12 (antibody) (VL): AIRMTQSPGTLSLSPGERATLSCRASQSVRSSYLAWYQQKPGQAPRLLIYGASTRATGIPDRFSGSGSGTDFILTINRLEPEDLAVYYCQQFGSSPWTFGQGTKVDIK
substance,measurement,setting,value
Omi-03 (antibody),"IC50, pseudoviral neutralization",[1],14 ng/mL
same,"IC50, pseudoviral neutralization",[2],8 ng/mL
same,"IC50, pseudoviral neutralization",[3],3 ng/mL
same,"IC50, pseudoviral neutralization",[4],546 ng/mL
same,"IC50, pseudoviral neutralization",[5],17 ng/mL
same,"IC50, pseudoviral neutralization",[6],6 ng/mL
same,"IC50, pseudoviral neutralization",[7],17 ng/mL
same,"IC50, pseudoviral neutralization",[8],20 ng/mL
same,pseudovirus neutralisation IC50,[9],8 ng/mL
same,pseudovirus neutralisation IC50,[10],17 ng/mL
same,"IC50, authentic virus neutralization",[11],28 ng/mL
same,"IC50, pseudovirus neutralization",[11],8 ng/mL
same,"IC50, pseudovirus neutralization",[12],5 ng/mL
same,"IC50, authentic virus neutralization",[13],4 ng/mL
same,pseudovirus neutralisation IC50,[14],5 ng/mL
same,"IC50, authentic virus neutralization",[15],9 ng/mL
same,"IC50, authentic virus neutralization",[16],12 ng/mL
same,Pseudovirus - IC50,[17],3 ng/mL
same,Pseudovirus - IC50,[18],5 ng/mL
same,pseudovirus neutralisation IC50,[19],8 ng/mL
same,pseudovirus neutralisation IC50,[20],3 ng/mL
same,pseudovirus neutralisation IC50,[21],3 ng/mL
same,"IC50, pseudovirus neutralization",[22],22 ng/mL
same,Authentic virus-IC50,[23],9 ng/mL
same,"IC50, pseudovirus neutralization",[24],17 ng/mL
same,pseudovirus neutralisation IC50,[25],17 ng/mL
same,Authentic virus-IC50,[26],9 ng/mL
same,Pseudovirus - IC50,[27],8 ng/mL
same,Pseudovirus - IC50,[28],22 ng/mL
same,Authentic virus-IC50,[29],12 ng/mL
same,Authentic virus-IC50,[30],7 ng/mL
same,"IC50, authentic virus neutralization",[30],7 ng/mL
same,"IC50, pseudovirus neutralization",[30],3 ng/mL
same,Pseudovirus - IC50,[30],3 ng/mL
same,pseudovirus neutralisation IC50,[31],22 ng/mL
same,"IC50, authentic virus neutralization",[32],9 ng/mL
same,Authentic virus-IC50,[33],4 ng/mL
same,Authentic virus-IC50,[34],4 ng/mL
same,"IC50, authentic virus neutralization",[34],4 ng/mL
same,"IC50, authentic virus neutralization",[35],15 ng/mL
same,"IC50, pseudovirus neutralization",[35],3 ng/mL
same,pseudovirus neutralisation IC50,[36],17 ng/mL
Omi-12 (antibody),"IC50, pseudoviral neutralization",[1],4 ng/mL
same,"IC50, pseudoviral neutralization",[2],3 ng/mL
same,"IC50, pseudoviral neutralization",[3],6 ng/mL
same,"IC50, pseudoviral neutralization",[4],> 10000 ng/mL
same,"IC50, pseudoviral neutralization",[5],429 ng/mL
same,"IC50, pseudoviral neutralization",[6],74 ng/mL
same,"IC50, pseudoviral neutralization",[7],3 ng/mL
same,"IC50, pseudoviral neutralization",[8],8 ng/mL
same,pseudovirus neutralisation IC50,[9],3 ng/mL
same,pseudovirus neutralisation IC50,[10],3 ng/mL
same,"IC50, authentic virus neutralization",[11],10 ng/mL
same,"IC50, pseudovirus neutralization",[11],3 ng/mL
same,"IC50, pseudovirus neutralization",[12],2 ng/mL
same,"IC50, authentic virus neutralization",[13],3 ng/mL
same,pseudovirus neutralisation IC50,[14],2 ng/mL
same,"IC50, authentic virus neutralization",[15],4 ng/mL
same,"IC50, authentic virus neutralization",[16],3 ng/mL
same,Pseudovirus - IC50,[17],2 ng/mL
same,Pseudovirus - IC50,[18],2 ng/mL
same,pseudovirus neutralisation IC50,[19],3 ng/mL
same,pseudovirus neutralisation IC50,[20],2 ng/mL
same,pseudovirus neutralisation IC50,[21],6 ng/mL
same,"IC50, pseudovirus neutralization",[22],6 ng/mL
same,Authentic virus-IC50,[23],6 ng/mL
same,"IC50, pseudovirus neutralization",[24],429 ng/mL
same,pseudovirus neutralisation IC50,[25],429 ng/mL
same,Authentic virus-IC50,[26],4 ng/mL
same,Pseudovirus - IC50,[27],3 ng/mL
same,Pseudovirus - IC50,[28],6 ng/mL
same,Authentic virus-IC50,[29],3 ng/mL
same,Authentic virus-IC50,[30],5 ng/mL
same,"IC50, authentic virus neutralization",[30],5 ng/mL
same,"IC50, pseudovirus neutralization",[30],6 ng/mL
same,Pseudovirus - IC50,[30],6 ng/mL
same,pseudovirus neutralisation IC50,[31],6 ng/mL
same,"IC50, authentic virus neutralization",[32],6 ng/mL
same,Authentic virus-IC50,[33],3 ng/mL
same,Authentic virus-IC50,[34],3 ng/mL
same,"IC50, authentic virus neutralization",[34],3 ng/mL
same,"IC50, authentic virus neutralization",[35],9 ng/mL
same,"IC50, pseudovirus neutralization",[35],2 ng/mL
same,pseudovirus neutralisation IC50,[36],3 ng/mL
